Assay results: the supplement of paper PMC6755084

B1: minF1; a variant is named by its letters at N, in order (parent)
chain: GAGACCGCAACTGAAAAGTTGTTNNNNAANNNNGGNTNNATTTCTGCACGTAGAAGCAAAAGGC

Variants of: B1
Assay: fraction ligated after 30 min (ligated reads / total reads); higher = more ligase activity
Details: with F1*subA RNA substrate (template-directed ligation), 42 °C
Protocol: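 Chip-synthesised pool of minF1 ligase ribozyme variants (single and double substitutions, single to quadruple deletions, bulge and P2 designed variants) was transcribed with T7 and reacted as a pool with excess substrate F1*subA for 30 min at 42 C in 50 mM EPPS pH 8.5, 25 mM MgCl2. Ligated and unligated RNAs were separated by PAGE, barcoded by RT and deep sequenced; fraction ligated = ligated reads / total reads, relative activity = FL / FL of wild-type minF1 (0.76); sequencing FL correlated with PAGE (R2 = 0.98). Sequences are the DNA template of the ribozyme.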

Variant	fraction ligated
TCAGAGGAGTT G34T T37G	0.000958
ACAGAGGAGTT G34T T37G	0.00192
TCAGAGGAGTT G34T T37G A40G	0.000453
ACAGAGGAGTT G34T T37G A40G	0.00205
TCAGAGGAGTT T23A G34T T37G	0.000421
TCAGAGGAGTT T23A G34T T37G A40G	0.000303
TCAGAGGATGA	0.00215
ACAGAGGATGA	0.00191
TCAGAGGATGA T23A	0.00378
TCAGAGGGTGA	0.00299
ACAGAGGGTGA	0.00282
TCAGAGGGTGA T23A	0.004
TCAGAGGTGTA	0.0016
ACAGAGGTGTA	0.00348
TCAGAGGTGTA T23A	0.00248
TCAGAGGTGTG	0.00329
ACAGAGGTGTG	0.00409
TCAGAGGTGTG T23A	0.00531
TCAGAGGTTGA	0.00136
ACAGAGGTTGA	0.00073
TCAGAGGTTGA T23A	0.000867
TCAGAGTGTGA	0.00219
ACAGAGTGTGA	0.00284
TCAGAGTGTGA T23A	0.00281

Variant	fraction ligated
TCAGATAGTGA	0.00299
ACAGATAGTGA	0.00391
TCAGATAGTGA T23A	0.00511
TCAGATATGTA	0.00271
ACAGATATGTA	0.00255
TCAGATATGTA T23A	0.00212
TCAGATATGTG	0.00722
ACAGATATGTG	0.00478
TCAGATATGTG T23A	0.00384
TCAGATATTGA	0.00261
ACAGATATTGA	0.0012
TCAGATATTGA T23A	0.00254
TCAGATGAGTA	0.0022
ACAGATGAGTA	0.00413
TCAGATGAGTA G34T	0.00143
ACAGATGAGTA G34T	0.00197
TCAGATGAGTA T23A	0.00194
TCAGATGAGTA T23A G34T	0.00285
TCAGATGAGTG	0.00463
ACAGATGAGTG	0.00387
TCAGATGAGTG G34T	0.00362
ACAGATGAGTG G34T	0.00398
TCAGATGAGTG T23A	0.00683
TCAGATGAGTG T23A G34T	0.00649

Variant	fraction ligated
TCAGATGAGTT G34T T37G	0.0017
ACAGATGAGTT G34T T37G	0.000925
TCAGATGAGTT G34T T37G A40G	0.00127
ACAGATGAGTT G34T T37G A40G	0.00147
TCAGATGAGTT T23A G34T T37G	0.00034
TCAGATGAGTT T23A G34T T37G A40G	0.00258
TCAGATGATGA	0.00144
ACAGATGATGA	0.00115
TCAGATGATGA T23A	0.00196
TCAGATGGGGT G34A G35T T37G A40T	0.00121
ACAGATGGGGT G34A G35T T37G A40T	0.00109
TCAGATGGGTA	0.000871
ACAGATGGGTA	0.00187
TCAGATGGGTA G34A	0.00212
ACAGATGGGTA G34A	0.00284
TCAGATGGGTA G34T	0.00105
ACAGATGGGTA G34T	0.00288
TCAGATGGGTA T23A	0.00335
TCAGATGGGTA T23A G34A	0.0017
TCAGATGGGTA T23A G34T	0.00312
TCAGATGGGTG	0.005
ACAGATGGGTG	0.00567
TCAGATGGGTG G34A	0.00479
ACAGATGGGTG G34A	0.0045

Variant	fraction ligated
TCAGATGGGTG G34T	0.00277
ACAGATGGGTG G34T	0.00406
TCAGATGGGTG T23A	0.00293
TCAGATGGGTG T23A G34A	0.00659
TCAGATGGGTG T23A G34T	0.00324
TCAGATGGGTT G34A G35T T37G	0.00107
ACAGATGGGTT G34A G35T T37G	0.000596
TCAGATGGGTT G34A G35T T37G A40G	0.000594
ACAGATGGGTT G34A G35T T37G A40G	0.000584
TCAGATGGGTT G34A T37G	0.00135
ACAGATGGGTT G34A T37G	0.00125
TCAGATGGGTT G34A T37G A40G	0.00106
ACAGATGGGTT G34A T37G A40G	0.000615
TCAGATGGGTT G34T T37G	0.00104
ACAGATGGGTT G34T T37G	0.0016
TCAGATGGGTT G34T T37G A40G	0.000744
ACAGATGGGTT G34T T37G A40G	0.00113
TCAGATGGGTT T23A G34A G35T T37G	0.00134
TCAGATGGGTT T23A G34A T37G	0.000991
TCAGATGGGTT T23A G34A T37G A40G	0
TCAGATGGGTT T23A G34T T37G	0.00101
TCAGATGGGTT T23A G34T T37G A40G	0.00157
TCAGATGGTGA	0.00356
ACAGATGGTGA	0.00375

Variant	fraction ligated
TCAGATGGTGA T23A	0.0062
TCAGATGTGTA	0.000796
ACAGATGTGTA	0.00227
TCAGATGTGTA T23A	0.00304
TCAGATGTGTG	0.00413
ACAGATGTGTG	0.0127
TCAGATGTGTG T23A	0.00627
TCAGATGTTGA	0.0015
ACAGATGTTGA	0.00338
TCAGATGTTGA T23A	0.00154
TCAGATTGTGA	0.00132
ACAGATTGTGA	0.00539
TCAGATTGTGA T23A	0.00184
TCAGGATGTGA	0.00269
ACAGGATGTGA	0.00342
TCAGGATGTGA A28T A29G	0.00322
ACAGGATGTGA A28T A29G	0.0031
TCAGGATGTGA A29G	0.00144
ACAGGATGTGA A29G	0.00108
TCAGGATGTGA A29T	0.00155
ACAGGATGTGA A29T	0.00171
TCAGGATGTGA T23A	0.00221
TCAGGATGTGA T23A A28T A29G	0.00354
TCAGGATGTGA T23A A29G	0.00232

Variant	fraction ligated
TCAGGATGTGA T23A A29T	0.00222
TCAGGGAGTGA	0.00359
ACAGGGAGTGA	0.00202
TCAGGGAGTGA A29T	0.00242
ACAGGGAGTGA A29T	0.00347
TCAGGGAGTGA T23A	0.0029
TCAGGGAGTGA T23A A29T	0.000582
TCAGGGATGTA	0.00309
ACAGGGATGTA	0.00263
TCAGGGATGTA A29T	0.000605
ACAGGGATGTA A29T	0.00654
TCAGGGATGTA T23A	0.00201
TCAGGGATGTA T23A A29T	0.00445
TCAGGGATGTG	0.00637
ACAGGGATGTG	0.00506
TCAGGGATGTG A29T	0.00266
ACAGGGATGTG A29T	0.00794
TCAGGGATGTG T23A	0.00389
TCAGGGATGTG T23A A29T	0.0102
TCAGGGATTGA	0.00138
ACAGGGATTGA	0.00266
TCAGGGATTGA A29T	0.00182
ACAGGGATTGA A29T	0.00506
TCAGGGATTGA T23A	0.000376

Variant	fraction ligated
TCAGGGATTGA T23A A29T	0.0045
TCAGGGTGTGA	0.00203
ACAGGGTGTGA	0.00435
TCAGGGTGTGA A29T	0.00272
ACAGGGTGTGA A29T	0.000904
TCAGGGTGTGA T23A	0.00148
TCAGGGTGTGA T23A A29T	0.00472
TCAGTATGTGA	0.00458
ACAGTATGTGA	0.00319
TCAGTATGTGA T23A	0.00284
TCAGTGAGTGA	0.00311
ACAGTGAGTGA	0.00274
TCAGTGAGTGA T23A	0.0046
TCAGTGATGTA	0.000465
ACAGTGATGTA	0.00194
TCAGTGATGTA T23A	0.00165
TCAGTGATGTG	0.00561
ACAGTGATGTG	0.00312
TCAGTGATGTG T23A	0.00385
TCAGTGATTGA	0.00169
ACAGTGATTGA	0.00326
TCAGTGATTGA T23A	0.00266
TCAGTGGAGTA	0.00247
